Data as given in patent US20240270861A1.

Columns and labels:
[1] = molecular target: human BAFF-R (B cell-activating factor receptor) expressed on cells (human) (UniProt Q96RJ3); assay: cell-based or functional assay
[2] = molecular target: human BAFF-R (B cell-activating factor receptor) expressed on cells (human) (UniProt Q96RJ3); assay: BAFF-biotin blocking, flow cytometry, hBAFF-R CHO cells; competitor BAFF-biotin
[3] = molecular target: poly-specificity reagent (PSR): detergent solubilized CHO cell membrane proteins; assay: flow cytometry PSR assay: test article captured on protein A beads, biotinylated PSR detected with streptavidin-PE, anti-human Fc for expression; control panel without PSR (FIG. 71D) prints Q2 0.019
[4] = molecular target: poly-specificity reagent (PSR): detergent solubilized CHO cell membrane proteins; assay: flow cytometry PSR assay: test article on Protein A coated beads, biotinylated PSR, read-out with SA-PE
[5] = molecular target: poly-specificity reagent (PSR): detergent solubilized CHO cell membrane proteins; assay: PSR assay: molecule on protein A beads, biotinylated PSR, SA-PE read out by flow cytometry; + PSR panel
[6] = molecular target: poly-specificity reagent (PSR): detergent solubilized CHO cell membrane proteins; assay: flow cytometry PSR assay: test article captured on protein A beads, biotinylated PSR detected with streptavidin-PE, anti-human Fc for expression; control panel without PSR (FIG. 71C) prints Q2 0.020

F3′ isotype control (F3′-palivizumab) (bispecific antibody)
KHYG-1-CD16a cytotoxicity on BJAB cells, Max killing (%) [1]: 48%

Human IgG1k (antibody)
Minimum (MFI) [2]: 68000 MFI

Ixekizumab (PSR positive control) (antibody)
events in quadrant Q2 (Expression-FITC positive, Binding-PE positive), + PSR [3]: 79.6%

Ixekizumab (antibody)
percent of events in Q2 (Expression-FITC positive, Binding-PE positive), + PSR [4]: 79.6%

Ixekuzumab (antibody)
% of events in quadrant Q2 (PSR binding+) [5]: 27.1%

Rituximab (antibody)
percent of events in Q2 (Expression-FITC positive, Binding-PE positive), + PSR [4]: 56.2%

trastuzumab (antibody)
events in quadrant Q2 (Expression-FITC positive, Binding-PE positive), + PSR [6]: 0.067% | percent of events in Q2 (Expression-FITC positive, Binding-PE positive), + PSR [4]: 0.087%
